Results taken from the DeepSol protein solubility set.

assay: soluble on expression in E. coli; label from the status in PepcDB or PDB records

| Sequence | soluble on expression in E. coli |
| --- | --- |
| MSLEQPGQPPAHSLVSLRGSGHHVAIVDRSDGRLLGTIDSARAASQVHPGAVYLHQGETFVIEELDDQVALAVPDQPDYQTFARSTTDIRIVGEVDKVCNPAPGLWVSNLVVEVTDRVVGYTMKASDGSVLAMVPLQMPPQTLVTRAVAYTVDPLVLDSLGITDVPGALHAAEHAAIGLLPLIATCDRWDIGGVSTAEHPDTGLPTVFVYDGHPGGAGFADCGYERFPEWVATTFEAIRSCQCESGCPSCVQSPKCGNGNDPLSKEGAIALLGAMCTMLGVTEGHHHHHH | not soluble |
| MSLERQEHSPLILLGEDEKFQATIVKDVLERKNFDVRIAPNGKVAYEMFCENRLFQLVIVDVFMPVVDGLRSVKLIRQYESNHQIERCPIIICSGNESIIRSGNNSQDTGGDAFVSKPFRPSLIDLVYKLIGKKEGHHHHHH | not soluble |
| MSLEVYYPGSVVFPADATLEQKVEMAAKVVPTLQQLAWQQMELTAFLHFGINTFTDSEWGDGKEDPALFNPVELDARQWVRILHEAGFRMVILTAKHHDGFCLWPTATTRHSVASSPWREGKGDVVKEVRAACEEYGMKFGIYLSPWDRNAECYGDSHRYNRFFVSQLTELLTHYGEVHEVWFDGANGEGPNGKRQEYDWETFYDTIRRLQPQAVMAIMGDDVRWVGNERGLGRTTEWSATVLTPGIYSRSKTERNRLGIRENSPDLGSREVLKEAGEIFWYPSEVDVSIRPGWFYHAAEDKKVKSLDKLVDIYFQSVGYNSVLLLNVPPDRRGLIHEADALRLKEWADYLGRAFAHDRVVDSARYAVVQGHAVEEYALESKTHINILMLQEDITKGQRTEAFTVEAWVDGAWQEIGRGTTIGYKRLLRIPAVETDRIRVRIEQEGHHHHHH | not soluble |
| MSLEWQDLAQLPVSIFKDYVTDAQDAEKPFIWTEVFLREINRSNQEIILHIWPMTKTVILGMLDRELPHLELAKKEIISRGYEPVVRNFGGLAVVADEGILNFSLVIPDVFERKLSISDGYLIMVDFIRSIFSDFYQPIEHFEVETSYCPGKFDLSINGKKFAGLAQRRIKNGIAVSIYLSVCGDQKGRSQMISDFYKIGLGDTGSPIAYPNVDPEIMANLSDLLDCPMTVEDVIDRMLISLKQVGFNDRLLMIRPDLVAEFDRFQAKSMANKGMVSRDEEGHHHHHH | soluble |
| MSLFIISQVFSPEGQRVLTMQFTKWFIALPLAVTALSGCSLLERLVYRIDINQGNYVDQQSVDQLKFGMSKDQVRFVLGSPMLVENGYPDTWYYIYHHTQGHNDPVQKNLIVKFNDGGKLVNVAGDFPAGDSFFEGVNEGHHHHHH | soluble |
| MSLFKKNFDIKDDRNLTMLVDFYELTMGNGYLNKNVGNKTAYFDMFFRRVPDNGGYCIMAGVQQLTEYLSNLRFTKEDIDYLRSKHEFSEEFLSYLKDFKFECDVWAVPEGNPVFPNEPLVTVKGPAIQAQFVETMILLTINHQTLIATKANRICRAAGNRPVMEFGSRRAQGYDGAIYGARAAVIGGCSSTACTISEQMFGVNAVGTMAHSWVQLFDNEFEAFKAWADVYPENCVLLVDTYNVLKSGLPNAIKVFDEVLKPKGIRPSGIRIDSGDITYLTKKCRKILDEAGYSDCKIVISNSLDEHIITDVLLQGAEVDSFGVGERLITAKSEPVFGGVFKLCAVENDEGNIVPKIKISENQEKITNPGFKKIYRLFDKETDKALADLITLNDEVIDETKPLEIFDPIYTWKKKKLTHYYVKDLRVQLFKKGELVYENPEVLEIRNIAKKETEKLWAEVLRLENPHTYYVDLSKKLWDLKHNLLEKYSNAEGHHHHHH | soluble |
| MSLFRGFGRSTLAKIGSTEISTEQFRQTYNDRLQQIGRQFGRPLTPDQARAIGIDRQVLQQTIAEAALDEDARRLGLGQSDADTMKSILEDPNFKGANGQFDANRFQQLIRQFGFTEQRYLAEQRRVALRRQIAGSLTAGLEAPKTLMQALSQFQSEERAIDYLKLTDAQAGTIAAPSPADLTAFYDSHKAQFRAPEYRKISFLVVTPESIAKWAEVSDADAQKLFEQRKDKLSTPEKRQLLQIVFPSVEEAQAGRAKIASGTSFADLAKERGVKPADLDLGLVSQSEMLDQKVAAAAFALPLNEVSQPVQGQFGTVLLEVTKIETEGHHHHHH | soluble |
| MSLFTFKKGLHLPYNKEFTKDKSIEIFKPKKELIFPLSQHIGAPCEPIVEVGQKVLVNEKIADSSAFVSSPIHSSVSGTIKDIREIQSINGSNTQAIIIENDSKYEKYPKENLKYSSKLSLKDVVKLVKDYGIVGLGGATFPCHVKLNVKEDKEIKYIIINAAECEPYLTCDHRVMLEYTEEIIGGLRILLELFPKALIYIGIEDNKLNAIDKFKSILGEDNKIKVMPLKSKYPQGSEKHLIYALTKLQVPSGKLPLDIGCIAFNVSTIYQLYASLINGLPLTERIITVTGDSIRSPKNLRVKIGTQVKDIIEFCGGFINKPNKIILGGPMMGTSVNSLDLPITKGTSGILCLSKVDTSPNSHCIRCGKCLNSCPMNLIPQKLNELALKDKFDEFEFLGGMDCLECGCCTFSCPAKISIVNNIRNAKKSLRNKSKNLEHHHHHH | soluble |
| MSLGDPGLKFQEYILQHIEPSKSYEIAICQSIGRRGKMEDTVVVDCSSIEGTDIIGVFDGHNGKDAAYLCTEQYIKTFKENEGTFEAKLIKTHKQLHDKSCETSKSGTTSTVAFIDKDTIRIAYCGDSPAYIYKNNKIKKITKEHKATNSAEVERIEMNGGVVFGMFGVKRVNGQIMVTRSIGDPSLHPPLTTEPDFIKLEKKGIELLFLMSDGITDGVTEKELEDIISKSGGMFNIAFDTLKLAYVNESSDNLTFIVIKINEGHHHHHH | soluble |
| MSLGDVEEWVNPDQSTSQPVTKAALVEKTVAMTEAGKFASFFQEGELETIQKLRVSGPLDASDIDAIRYQMPRLEVLDMKEVELIESDKTYGAEDHREHYKLKKGVITPKMLQCFSLLVTLVLPKDITEIEDYGIYGNKNLVSIEIPVTVKKVGAHVFKSCSSLQKVDLPNVETLGERVFESCGKLTKVTLSPDLQVIPDYAFQYCGSLADVPLPSSLVSIGVSAFRDCSSLVDVPLPSSLVSIGTGAFANCKSLTSVDMPNTVTTLENGTYQNCTNLKDVKLSDNLKRIGAENDHYSGSSFEGCQNLASIDIPASVSWINSFSFKNCVNLKTVTFHEGLQVIGGKSFQGCSSLVSVSIPKSVTSIGDESFEYCSSLNEMNLSQEGTPEINSSAFAYSGLSSITIPETVTSVGGGILNGCSRLTSIFWECNRDVPNIIDLNSTSCLLYLSHDVKCPSTWKNVIEPGGVAQTIVLKNEKRYLCPKAFTANKISYTREFTMKTIPGKAAGWQTIILPFSVQTITDKDGNRLAPFMAEGDGIWKRFWLRELQADGTYKDVTAIEANKPYLIAMPNAEEYASEYCISGNVTFEADNVSLGETPEIVPTDGGAYSMYGTYDWVTGTRKVYALNLDNWSDGSVYYEKGSVFVPSLRDVAPFECYLQNNNPSASTRGFIGIVGSHASTRAGEGHHHHHH | soluble |
| MSLGEGFPSFEEMVEKELEGYSGFRFLDRGIYAKQLEQWFRFFPKKQFLILKSENFFEDPAKEFRKVICFLNLPVWELPEYANVNWKVLARSKRVERYQKINKETRERLLYYFKPFNDQLYALINKNFGWKEGHHHHHH | not soluble |
| MSLGFIDAQREHFGVESICKALQVAPSGYWRRAARRSNPALLPARAKGDAELVPQIERVWTSNLQVYGYRKVWRQMLREGTAVARCTVERLMRLKGLQGARRGKKILTTVPDAKAPCPLDRVNRQFKADKPNQLWVSDFTYVSTWQGMVYVAFVVDVYARFIVGWRVSRSMRTDFVLDALEQALYARKPERDGALIHHSDRGLQYVSIRYSERLAEAGIEPSVGSKGDSYDNALAETINGLYKTELIHRRAPWKSKEAVELATLEWVSWFNHHRLMESLGYIPPAEAEANYHWQLAGQAMSVEGHHHHHH | not soluble |
| MSLGGEVRGPVAVADFAKHVAQLHADGDIGFSKEYEAIQGEALNDEYPSENSQHPENKGKNRYLNVIAYDHSRVHLRQVPGQKKHLDYINANFIDGYQKPRAFIGTQGPLPGTFDCFWRMVWEQRVAVIVMITNLVERGRRKCDMYWPKDGTETYGIIQVRLVKEDVMATYTVRTLHIKHLKMKKKKQSQMEKTVYQYHYTNWPDHGTPDHPLPVINFVKKSTTANLPDGGPIVVHSSAGVGRTGTFIVLDAMLKQIEAKGSLNVFGFLRYIRAQRNYLVQTEEQYIFIHDALVEAITSGETNEGHHHHHH | soluble |
| MSLGILEDKKRARIFYRYFSKIYDYINPIFYSDKMRKTVVDMADIDAESLVLEVGCGTGFTTEEIVRRIGEERVVAVDITPEQMMKARAKMGGVNYFLGDAENLPFKDNSFDAAISAGSIEYWPNPQRGIEEMARVTKSGGKVVILAPRKPDNFAVRKFAESIMLFPSTQQCVYWFMKAGLEDIRFVETGPYRFWSKLVVIISGTVPEGHHHHHH | soluble |
| MSLGITRVVLADDHAVVRAGLRTALAALPDCEVVSEAATGPQLLAVLAQHHPDLLVVDVAMPDFDPIATIRQIHADYPAMKILVVSAYDDQSYVVGLLAAGVNGYHLKDQPLSDLQLAVQRIMAGGNWISSPLLSRLIQAAPQIAHSSPITLTKRQRDLLRLIAQGYDNRRMAQEMDLSIKTIENHLTALYRTIRVSSRLEAYQFALRHPELLAESGHEAALSREPSTSPAPLMVMIIDDNERYRAQLKRMIGKACAESQIYEAEDCHEATRLLRQITPDLVFVDVILQDGDGIQCLRRLKSVSPHTRVILISAYPDREFRRLGLEAGALAFLDKKDLDAATVRQVVEDTLRREGHHHHHH | soluble |
| MSLGKEGLERLVYMVDRSDSLSLLQERIDSIEVVAPQVFSFTLEGTVYGEVDPRIIALAKERGKKLMPLVMNENFEKEKIKAFLANPKAQERLIGSLIKIALKEGFGGWQLDFEHLGITSKEAYTQLVRQLYARLKEHHLSLSIAVVPPRGEEPKNAYGAKVFEDWVSPYDLKALAEHSDFLTLMAYDQHTGGSTPGPIASRAWVEGIIQEALIWVPKEKLSLGIPLYSRLWHAGIKEEKMRGVAKSLTFAGAMDWLERQGAETLWLERDGVKWAMGERGGVKEYLFMEEARSLALKVELAKRYGLRGISLWRLGQEDPRIWDELEGHHHHHH | soluble |
| MSLGKLLFVDIGGTLLDYSNEVPRSAVDAIRKARAKGHRVYLSSGRSSAEVTSQLWDIGVDGLIGANGGYVESAQESVFHRRLSGEETRHIVEWLYNRGLEFYLESNNGLYASRGFREASKPVLSRLSEKTDVTVDSMYPDMFWGASLDRDDVNKISYIFNSQEDLDAAREAFPNLEHTTWGGQTGALFGTIGVSVNKKIGVDRLLKYLNADRANTIAFGDSDEDLSLFEASAYGVAMGEATESLKAAADLVTDAVGQDGLRNAFLKLELIDAEGHHHHHH | soluble |
| MSLGKTLLVDSKGLILDGKHIIPVMGEIHYSRVPESEWRREIRKMKAGGINIISTYIFWIHHEPEEGKWNWSGNHNLRRFVRICAEENVMLVLRLGPFCHGEVYQGGIPSWVHEKAGQNPKYKIRARTPGFLEDCTELYNTIFAQVNGLLWKDGGPVVGVQIENESRGPWDYLEALKNIAVKAGFDVPFYTRTGWPALRGKEVFGQLLPLYGDYADGFWDRKLEDMPGSYADAFIMRDKRMSSAIATETFSKEELSEDSPSLSSKLSYPYFTCELGGGMMPAYHRRININGKELKPLVICKLGSGSNLPGYYMYHGGTNPYNPLHTMGETQSSPGTNHNDLPHMTYDFQAPLGEVGQVFETPFHEGRFIHQMLTDWGSELLQMNVDSLSRHYARRGAFEFYNDYVRIKNESGTSHVTFKDYRTEGATIDWTTVEPFCKVDGLIYFIEIRGKKPQISVDGKVYTCKLNKEGHHHHHH | not soluble |
